Assay results reported in US20090123940A1, “MOLECULES INVOLVED IN SYNAPTOGENESIS AND USES THEREFOR” (THE JOHNS HOPKINS UNIVERSITY, priority 2007, published 2009).
Marks after values point to notes of the source that are not given here.

What was measured:
[1] = system: GluR1 on cultured spinal neurons; experiment: Co-culture of myc-Narp expressing 293 cells with spinal neurons; format: cell-based
Procedure: The neurons and transfected HEK-293 cells were cocultured for 48 hours and then fixed and stained for myc-Narp, GluR1 and synapsin. When contacts between myc-Narp expressing 293 cells and GluR1 expressing spinal neurons were examined for overlapping myc-Narp/GluR1 clusters, 64% (82/128) of the myc-Narp clusters in contact with the neuron overlapped with neuronal GluR1 clusters (mean of 2.6+/−1.5 overlapping myc-Narp/GluR1 clusters per 293-neuron contact).

cultured spinal neurons = experiment: Narp overexpression in transfected cultured spinal neurons; format: cell-based
Procedure: In order to characterize the synaptic targeting of Narp in neurons, a C-terminal myc-tagged version of Narp (designated myc-Narp) was transfected into cultured spinal neurons (Dong et al., Nature 386:279-84, 1997). After 72 hours of expression, live staining with an anti-myc (mouse) antibody, followed by a FITC labeled anti-mouse secondary, was used to reveal the surface distribution of the transfected Narp. Subsequent staining of the same cells, after fixation and permeabilization, with an AMCA labeled anti-myc (rabbit) antibody was used to identify transfected neurons and their axons and dendrites, while GluR1 and GAD staining were used to identify excitatory and inhibitory synapses, respectively.
Given the presence of Narp on both pre and postsynaptic processes and the biochemical propensity of pentraxins to form head to head multimeric aggregates (Emsley et al., Nature 367, 338-45, 1994; Gewurz et al., Curr. Opin. Immunol. 7:54-64, 1995; Bottazzi et al., J. Biol. Chem. 272:32817-23, 1997), the possibility that Narp may function to facilitate the formation of excitatory synapses was explored. Thus, the number of synaptic GluR1 clusters (i.e., GluR1 clusters associated with synaptophysin staining) in transfected neurons over expressing myc-Narp was compared with the number of synaptic GluR1 clusters in untransfected neurons or in neurons transfected with a control plasmid containing the C-terminus of the NMDA receptor subunit NR1A (NR1CT).

[2] = biological target: T1, HA GluR1 surface diffusion (Homo sapiens, UniProt P42261); experiment: Single Quantum Dot Tracking of HA-tagged receptors on hippocampal neurons; format: cell-based, mouse
T1 construct: expressed in transfected cells; host or cells: dissociated mouse hippocampal neurons (P1-3 pups)
Procedure: (§1) Single Quantum Dot (QD) Tracking. Hippocampal neurons were prepared from postnatal days 1-3 mouse pups and cultured in Banker Style conditions to 6 D. I. V., 8 D. I. V., or 11 D. I. V. Cultured hippocampal neurons were transfected as above. 0.5 μL of QD 655 mouse IgG (QuantumDot Corporation) was incubated with 0.8 μg of HA antibody (Santa Cruz) in a 20 μL volume of PBS for 1 hour at room temperature. Neurons were incubated in a 1:500 dilution of this QD solution for 15 minutes at 37° C., 5% CO2. After brief washes with culture media, the neurons were mounted on a live imaging chamber with culture media/10 mM Hepes. Transfected neurons were identified based on GFP fluorescence. 100 millisecond exposure images were collected from neurons at a frequency of 2.67 Hz for 60 seconds with a coolsnap HQ (Photometrix). The graphical and numerical representation of the trajectory of each QD was extracted from each stack of images using the Motion Analysis Package of Metamorph (Universal Imaging Corporation). The numerical representation of the trajectory was used to calculate a diffusion coefficient using MSD software. Analysis was performed blinded.
(§2) Narp reduces surface diffusion of GluR1 but not GluR1ΔNAR1. GluR1ΔNAR1 was used to examine the hypothesis that Narp and NP1 function to limit the diffusion of receptors, and thereby recruit GluR1 to synapses. As part of a validation of GluR1ΔNAR1 for cell biological studies it was confirmed that it retained agonist-dependent channel activity. […] The mobility of HA GluR1 relative to HA GluR1ΔNAR1 on the surface of neuronal dendrites were compared using 5 nm fluorescent Quantum Dots (QDs) and Single Quantum Dot Tracking (SQDT). Dissociated hippocampal cultures (DIV 6) were transfected with HA GluR1-IRES2-GFP or HA-GluR1ΔNAR1-IRES2-GFP. […] QD-HA-GluR1 and QD-HA-GluR1ΔNAR1 were visualized by live, time-lapse fluorescence imaging. The trajectories of QD-coupled receptors were determined by the position of the QD in each frame, and the receptor diffusion coefficients were calculated from QD trajectories over multiple trials. […]

[3] = biological target: T2, HA GluR1 surface diffusion (Homo sapiens, UniProt P42261, A320G/C323G/D322G/DEL281-317/N319G); experiment: as above; format: cell-based, mouse; conditions: 7 D. I. V., Narp transgene
T2 construct: expressed in transfected cells; host or cells: dissociated mouse hippocampal neurons (P1-3 pups)
Procedure: as §1, §2

[4] = system: GluR1 expressing 293 cells; experiment: Co-culture of separately transfected 293 cells, intercellular clustering; format: cell-based
Source text: To evaluate whether Narp could mediate intercellular aggregation of GluR1, similar to that expected at a synapse, myc-tagged Narp and GluR1 were expressed separately in 293 cells and subsequently co-cultured together. Under these conditions, surface Narp clusters on one cell could induce large surface GluR1 aggregates on another. In a total of 109 contacts between a GluR1 expressing transfected cell and a Narp expressing cell, there was a mean of 1.2+/−0.75 large overlapping GluR1/myc-Narp clusters at these sites of contact. […] Moreover, the number of GluR1 clusters at sites of contact with non-Narp expressing 293 cells was extremely low [0.07 R1 clusters per contact with a GluR2 expressing cell (n=76); 0.03 R1 clusters per contact with a Pick1/GluR2 expressing cell (n=58)]. The interaction between GluR1 and Narp required contact between the heterologous cells, as there was no evidence that Narp could diffuse from one cell and induce GluR1 clusters on another.

[5] = transfected neurons, +/- S.D., 5 experiments

T1 sequence (P42261 19-906): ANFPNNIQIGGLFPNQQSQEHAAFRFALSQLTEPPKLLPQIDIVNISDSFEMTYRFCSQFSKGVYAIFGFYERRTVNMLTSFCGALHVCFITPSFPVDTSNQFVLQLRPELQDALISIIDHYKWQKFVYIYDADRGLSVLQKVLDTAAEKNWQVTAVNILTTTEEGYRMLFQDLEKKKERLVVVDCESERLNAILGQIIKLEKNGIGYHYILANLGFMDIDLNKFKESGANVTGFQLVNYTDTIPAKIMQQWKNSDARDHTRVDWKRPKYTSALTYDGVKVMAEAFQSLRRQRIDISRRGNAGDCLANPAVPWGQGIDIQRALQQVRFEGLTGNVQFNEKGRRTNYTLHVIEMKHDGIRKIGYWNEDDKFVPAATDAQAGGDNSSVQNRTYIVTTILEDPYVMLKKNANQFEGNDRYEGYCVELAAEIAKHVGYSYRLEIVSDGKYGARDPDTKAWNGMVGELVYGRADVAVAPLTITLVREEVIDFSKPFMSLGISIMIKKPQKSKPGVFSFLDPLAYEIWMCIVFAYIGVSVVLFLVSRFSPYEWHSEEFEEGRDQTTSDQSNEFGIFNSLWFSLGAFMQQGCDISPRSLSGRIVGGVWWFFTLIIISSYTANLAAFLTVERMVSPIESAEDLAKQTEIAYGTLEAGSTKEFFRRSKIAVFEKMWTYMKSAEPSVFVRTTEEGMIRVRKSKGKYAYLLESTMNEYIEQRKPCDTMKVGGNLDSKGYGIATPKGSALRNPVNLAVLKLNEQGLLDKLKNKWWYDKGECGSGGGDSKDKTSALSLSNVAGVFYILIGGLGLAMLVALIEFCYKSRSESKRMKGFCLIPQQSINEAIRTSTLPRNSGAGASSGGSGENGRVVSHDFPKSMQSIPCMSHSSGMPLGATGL
T2 sequence (P42261 with tags, fused parts or gaps DEL281-317/N319G/A320G/D322G/C323G): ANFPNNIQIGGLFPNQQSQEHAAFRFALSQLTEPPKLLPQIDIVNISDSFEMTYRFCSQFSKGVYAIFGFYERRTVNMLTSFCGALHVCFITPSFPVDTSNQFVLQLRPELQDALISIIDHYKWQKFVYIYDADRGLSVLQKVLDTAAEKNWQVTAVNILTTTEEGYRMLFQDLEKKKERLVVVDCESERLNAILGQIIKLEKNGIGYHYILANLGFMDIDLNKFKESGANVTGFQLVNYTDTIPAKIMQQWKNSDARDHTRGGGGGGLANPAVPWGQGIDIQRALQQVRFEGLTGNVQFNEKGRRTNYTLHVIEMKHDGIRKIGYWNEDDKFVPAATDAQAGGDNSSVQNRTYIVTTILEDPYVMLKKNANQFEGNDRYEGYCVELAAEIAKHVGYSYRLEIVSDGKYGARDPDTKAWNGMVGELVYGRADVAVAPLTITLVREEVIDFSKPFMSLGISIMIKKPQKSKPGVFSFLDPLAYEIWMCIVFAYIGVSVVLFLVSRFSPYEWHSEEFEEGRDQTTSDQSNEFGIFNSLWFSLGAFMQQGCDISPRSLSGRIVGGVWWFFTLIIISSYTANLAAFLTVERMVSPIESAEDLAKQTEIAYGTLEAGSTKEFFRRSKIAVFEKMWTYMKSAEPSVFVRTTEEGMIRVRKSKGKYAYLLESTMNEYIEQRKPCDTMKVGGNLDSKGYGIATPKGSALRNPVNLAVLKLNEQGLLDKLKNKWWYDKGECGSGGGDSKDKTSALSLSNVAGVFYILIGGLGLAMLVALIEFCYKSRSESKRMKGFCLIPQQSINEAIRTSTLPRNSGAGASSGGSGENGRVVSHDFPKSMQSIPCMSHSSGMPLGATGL

B1: Narp: Neuronal activity regulated pentraxin (SEQ ID NO:2), expressed by transfection, also as C-terminal myc-tagged version (protein, listed as Rattus norvegicus)
chain: MLALLTAGVALAVAAGQAQDNPIPGSRFVCTALPPEAARAGCPLPAMPMQGGALSPEEELRAAVLHWRETVVQQKETLGAQREAIRELTSKLARCEGLAGGKARGTGATGKDTMGDLPRDPGHVVEQLSRSLQTLKDRLESLELQLHTNASNAGLPSDFREVLQRRLGELERQLLRKVAELEDEKSLLHNETSAHRQKTENTLNALLQRVTELERGNSAFKSPDAFKVSLPLRTNYLYGKIKKTLPELYAFTICLWLRSSASPGIGTPFSYAVPGQANEIVLIEWGNNPIELLINDKVAQLPLFVSDGKWHHICITWTTRDGMWEAFQDGEKLGTGENLAPWHPIKPGGVLILGQEQDTVGGRFDATQAFVGELSQFNIWDRVLRAQEIINIANCSTNMPGNIIPWVDNNVDVFGGASKWPVETCEERLLDL
modifications: optional C-terminal myc tag
[1]; 48 hours coculture
  myc-Narp clusters in contact with the neuron overlapping with neuronal GluR1 clusters: 64%
  overlapping myc-Narp/GluR1 clusters per 293-neuron contact: 2.6+/−1.5
[1]; soluble secreted form
  bioactivity of soluble Narp collected from the media (binding to transfected 293 cells): no bioactivity
Cultured spinal neurons; five transfection experiments, p<0.01
  increase in number of synaptic GluR1 clusters compared to either control: 1.9 fold
Cultured spinal neurons; [5]
  Synaptic GluR1 Clusters: 13.0 +/− 3.8 **
  Synaptophysin Clusters: 16.0 +/− 4.6 *
Cultured spinal neurons; transfected neurons, permeablized myc staining at 100X, 3 experiments
  Neuritic Length: 225 µm
Cultured spinal neurons; transfected neurons, separate series of 3 experiments
  GAD Clusters: 5.9 +/− 3.9
[2]; 7 D. I. V.
  slowing of HA GluR1 average diffusion rate versus absence of Narp transgene: 58%
[2]; 9 D. I. V.
  slowing of HA GluR1 diffusion in the presence of the Narp transgene: 44%
[3]
  HA-GluR1ΔNAR1 average diffusion rate: not significantly altered
[4]; 109 contacts between a GluR1 expressing cell and a Narp expressing cell
  large overlapping GluR1/myc-Narp clusters at sites of contact: 1.2+/−0.75
[4]; n=32 contacts
  coclusters of NR1 and NR2A: 0
[4]; n=121
  clusters of EAAC1 at sites of contact: 0.04+/−0.05
[4]; untagged Narp co-expressed with GluR1, co-cultured with cells expressing only myc-tagged Narp, n=124
  intercellular myc-Narp*GluR1 co-clusters: 2.6+/−1.4
